Data on 4 molecules can be found in paper PMC4632003, “Mitofilin and CHCHD6 physically interact with Sam50 to sustain cristae structure” (Scientific Reports, 2015).

T1: GST-tagged Sam50 (Homo sapiens (Human), UniProt Q9Y512)
T1 chain: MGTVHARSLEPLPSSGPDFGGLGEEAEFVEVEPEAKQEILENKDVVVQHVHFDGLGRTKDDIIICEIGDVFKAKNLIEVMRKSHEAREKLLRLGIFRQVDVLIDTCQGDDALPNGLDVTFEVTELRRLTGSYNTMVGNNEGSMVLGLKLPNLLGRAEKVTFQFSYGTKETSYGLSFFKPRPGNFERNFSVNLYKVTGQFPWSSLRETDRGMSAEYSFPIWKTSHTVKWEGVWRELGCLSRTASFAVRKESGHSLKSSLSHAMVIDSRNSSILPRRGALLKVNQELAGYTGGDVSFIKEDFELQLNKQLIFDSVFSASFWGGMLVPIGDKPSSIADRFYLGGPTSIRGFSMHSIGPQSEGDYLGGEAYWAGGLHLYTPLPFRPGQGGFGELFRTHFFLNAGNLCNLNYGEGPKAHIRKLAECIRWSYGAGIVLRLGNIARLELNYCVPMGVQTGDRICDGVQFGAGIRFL

T2: His-tagged Mitofilin 123-758 (human, UniProt Q16891 123-758)
T2 construct: Mitofilin, human, residues 123-758, cloned into pET-28a; The methods of the pull-down name 'GST-Mitofilin' where results, legend and plasmids say His-tagged Mitofilin 123-758; its purification is not described; also called His-Mitofilin^123–758; source: E. coli
T2 sequence (looked up): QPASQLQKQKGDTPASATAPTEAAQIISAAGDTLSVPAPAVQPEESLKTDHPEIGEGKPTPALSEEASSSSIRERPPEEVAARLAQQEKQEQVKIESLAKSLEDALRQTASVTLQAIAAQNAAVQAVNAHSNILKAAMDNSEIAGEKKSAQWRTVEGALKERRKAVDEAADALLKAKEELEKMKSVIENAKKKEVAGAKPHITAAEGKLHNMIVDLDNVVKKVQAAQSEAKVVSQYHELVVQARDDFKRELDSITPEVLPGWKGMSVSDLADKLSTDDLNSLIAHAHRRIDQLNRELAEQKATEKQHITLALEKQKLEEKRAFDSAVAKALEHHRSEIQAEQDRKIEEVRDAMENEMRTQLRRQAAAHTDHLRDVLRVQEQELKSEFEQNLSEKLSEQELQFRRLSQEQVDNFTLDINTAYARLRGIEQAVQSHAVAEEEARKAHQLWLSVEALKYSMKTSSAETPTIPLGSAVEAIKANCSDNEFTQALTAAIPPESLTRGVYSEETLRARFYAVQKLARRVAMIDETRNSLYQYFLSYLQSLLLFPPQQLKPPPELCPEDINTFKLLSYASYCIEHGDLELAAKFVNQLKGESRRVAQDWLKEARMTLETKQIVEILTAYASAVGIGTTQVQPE

B1: His-tagged CHCHD6 NΔ15 variant (domain or fragment, human, UniProt Q9BRQ6 16-235, looked up)
chain: VDEEERVRVLQGVRLSENVVNRMKEPSSPPPAPTSSTFGLQDGNLRAPHKESTLPRSGSSGGQQPSGMKEGVKRYEQEHAAIQDKLFQVAKREREAATKHSKASLPTGEGSISHEEQKSVRLARELESREAELRRRDTFYKEQLERIERKNAEMYKLSSEQFHEAASKMESTIKPRRVEPVCSGLQAQILHCYRDRPHEVLLCSDLVKAYQRCVSAAHKG
notes: CHCHD6, human, deletion variant that lacks the N-terminal 15 amino acids; cloned into pET-28a; source: E. coli (BL21), purified (Nickel-NTA agarose); not shown: His tag, N-terminal, kept
B2: His-tagged CHCHD6 CΔ46 variant (protein)
chain: MGSTESSEGRRVSFGVDEEERVRVLQGVRLSENVVNRMKEPSSPPPAPTSSTFGLQDGNLRAPHKESTLPRSGSSGGQQPSGMKEGVKRYEQEHAAIQDKLFQVAKREREAATKHSKASLPTGEGSISHEEQKSVRLARELESREAELRRRDTFYKEQLERIERKNAEMYKLSSEQFHEAASKMESTIK
B3: His-tagged full-length CHCHD6 (natural protein, human, UniProt Q9BRQ6 1-235, looked up)
chain: MGSTESSEGRRVSFGVDEEERVRVLQGVRLSENVVNRMKEPSSPPPAPTSSTFGLQDGNLRAPHKESTLPRSGSSGGQQPSGMKEGVKRYEQEHAAIQDKLFQVAKREREAATKHSKASLPTGEGSISHEEQKSVRLARELESREAELRRRDTFYKEQLERIERKNAEMYKLSSEQFHEAASKMESTIKPRRVEPVCSGLQAQILHCYRDRPHEVLLCSDLVKAYQRCVSAAHKG
notes: CHCHD6, human, full length, cloned into pET-28a; also called His-CHCHD6; source: E. coli (BL21), purified (Nickel-NTA agarose)
B4: GST-tagged Sam50 (natural protein, human, UniProt Q9Y512 1-469, looked up)
chain: T1 chain
notes: Sam50, human, full-length cDNA cloned into pGEX-6P-1; also called GST-Sam50; source: E. coli (BL21), purified (glutathione agarose)

Experiment [1] deals with T1, GST-tagged Sam50. In words: GST pull-down.
Experiment [2] addresses B4. In words: pull-down; GST pull-down: 10 μg purified GST-tagged protein, 10 μg His-tagged protein and glutathione Sepharose 4B in 1 ml PBS with protease inhibitor, overnight at 4 °C, washed five times with cold PBS; Western blot. To be noted: both partners purified.
Experiment [3] concerns the target T2, His-tagged Mitofilin 123-758. The experiment is described as above. Conditions: both partners purified.

With B1, the binding result with GST-tagged Sam50 [1] and with GST-tagged Sam50 [2] was “binds” throughout.

With B2, in the experiment with GST-tagged Sam50 [1], the binding result is listed as “no binding”.

B3: the binding result with GST-tagged Sam50 [1] and with GST-tagged Sam50 [2] was “binds” each time.

Consider B4, for which the binding result in experiment [3] is “binds”.
